Laboratory results from doi:10.1101/2022.06.01.494241 (bioRxiv, 2022).

Molecular target: T1, μMASS^2A (rat)
T1 chain: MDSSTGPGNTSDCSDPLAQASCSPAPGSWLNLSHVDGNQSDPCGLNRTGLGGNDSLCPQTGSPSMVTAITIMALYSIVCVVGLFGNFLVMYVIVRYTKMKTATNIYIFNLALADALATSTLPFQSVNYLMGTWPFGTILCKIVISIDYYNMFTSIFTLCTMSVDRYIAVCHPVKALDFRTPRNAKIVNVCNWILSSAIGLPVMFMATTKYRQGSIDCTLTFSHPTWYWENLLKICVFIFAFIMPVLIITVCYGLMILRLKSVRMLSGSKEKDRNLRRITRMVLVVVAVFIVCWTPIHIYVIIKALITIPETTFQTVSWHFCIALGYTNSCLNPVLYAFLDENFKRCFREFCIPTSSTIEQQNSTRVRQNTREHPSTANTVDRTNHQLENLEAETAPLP
Assay: other fluorescence titration

Kd: 1180 nM
Binder: YGGFMTSEKSQTPLVTLFKNAIIKNAYKKGE (peptide, UniProt P01189 237-267, looked up) [β-endorphin]
